According to the DeepSol protein solubility set:

test: soluble on expression in E. coli; label from the status in PepcDB or PDB records

**Q.** Which “soluble on expression in E. coli” value does the source give for “RTGAELLALTTSTGKSIAQLMWDNERAWHTEAETRTGLLKIWDVMQSCVARGCGIGNPDADGTLPGPFQVKRRAPQLYRALTGNPERALQDPLSMVDWINLYAIAVNEENAAGGRVVTAPTNGAAGIIPAVLHYYTRFTPGANEQGVIDFLMTAAAIGILYKLNASISGAEVGCQGEVGVACSMAAGALAAVLGGTPQQVENAAEIGMEHNLGLTCDPVGGMVQIPCIERNAMASVKAVNAARMALRGDGSHYVSLDSVIKTMRETGADMKTKYKETSRGGLAVN” here?
**A.** not soluble

**Q.** For “RTRKGIELIPLDQVIYFIADHKYVTLRHEGGEVLLDEPLKALEDEFGDRFVRIHRNALVARKRIESMKRTPVGHFELFLRGLNGDALIVSRRHVAGVRKMMQQL”, which “soluble on expression in E. coli” value is on record?
**A.** not soluble

**Q.** Which “soluble on expression in E. coli” value does the source give for “SAAPRVFPLSCAVQQYAWGKMGSNSEVARLLASSDPLAQIAEDKPYAELWMGTHPRGDAKILDNRISQKTLSQWIAENQDSLGSKVKDTFNGNLPFLFKVLSVETPLSIQAHPNKELAEKLHLQAPQHYPDANHKPEMAIALTPFQGLCGFRPVEEIVTFLKTAAGNNMEDIFGELLLQLHQQYPGDIGCFAIYFLNLLTLKPGEAMFLEANVPHAYLKGDCVECMACSDNTVRAGLTPKFIDVPTLCEMLSYTPSSSKDRLFLPTRSQEDPYLSIYDPPVPDFTIMKTEVPGSVTEYKVLALDSASILLMVQGTVIASTPTTQTPIPLQRGGVLFIGANESVSLKLTEPKDLLIFRACCLL” here?
**A.** soluble

**Q.** For “SADIYIMGHRYPDMDALGSAFGVARLASFNNRKAWIVLDENEIIPDVKRVLEAIKEYPELEERIISPKEAMKRKKESSLLVMVDYHKPSLSISQELYERFDKVVIIDHHRRGDEFPAKPLLSYIESSASSASELVTELIEYQSNSANKLQAFEATMMLAGIVVDTKSFNTRTTARTFDVASYLRTCGADSSLVQYLLSSDL”, which “soluble on expression in E. coli” value is on record?
**A.** not soluble

**Q.** With “SAEKQAGLVGEPDPEGSSPGTSESWNYDSNCVFCRVAAGQEPKTELFHCENEDLVCFKDIKPAALYHYLVVPKKHIGSCKDLNKDHIEMVESMVAAGKTMLERNNFTDFTDVRMGFHVPPFCSISHLHLHVIAPVKEFGFLSKLVYRQDSYWFVTVDYLLEKLRK” as the sequence, how does the “soluble on expression in E. coli” value read?
**A.** soluble

**Q.** With “SAESWLRLSGAGPAEEAGPEGGLEEPDALDDSLTSLQWLQEFSILNAKAPALPPGGTDPHGYHQVPGSAAPGSPLAADPACLGQPHTPGKPTSSCTSRSAPPGLQAPPPDDVDYATNPHVKPPYSYATLICMAMQASKATKITLSAIYKWITDNFCYFRHADPTWQNSIRHNLSLNKCFIKVPREKDEPGKGGFWRIDPQYAERLLSGAFKKRRLPPVHIHPAFARQAAQEPSAVPRAGPLTVNTEAQQLLREFEEATGEAGWGAGEGRLGHKRKQPLPKRVAKVPRPPSTLLPTPEEQGELEPLKGNFDWEAIFDAGTLGGELGALEALELSPPLSPASHVDVDLTIHGRHIDCPATWGPSVEQAADSLDFDETFLATSFLQHPWDESGSGCLPPEPLFEAGDATLASDLQDWASVGAFL” as the sequence, how does the “soluble on expression in E. coli” value read?
**A.** soluble

**Q.** Which “soluble on expression in E. coli” value does the source give for “SAFPIDLRGQTAFVAGVADSHGYGWAIAKHLASAGARVALGTWPPVLGLFQKSLQSGRLDEDRKLPDGSLIEFAGVYPLDAAFDKPEDVPQDIKDNKRYAGVDGYTIKEVAVKVKQDLGNIDILVHSLANGPEVTKPLLETSRKGYLAASSNSAYSFVSLLQHFGPIMNEGGSAVTLSYLAAERVVPGYGGGMSSAKAALESDTRTLAWEAGQKYGVRVNAISAGPLKSRAASAIGKSGEKSFIDYAIDYSYNNAPLRRDLHSDDVGGAALFLLSPLARAVSGVTLYVDNGLHAMGQAVDSRSMPPLQRATQEIN” here?
**A.** soluble

**Q.** Which “soluble on expression in E. coli” value does the source give for “SAFQKAASLLGAPIGHDFCVISLSDLMTPWERIERRILAAAQADFVTAVYNPKSDGRYWQIYRLREIFLREGRSPETPVGYVRQAGREEQEIHITTLAAFDPETVDMFTVVLIGNSQTY” here?
**A.** not soluble

**Q.** With “SAFVAALSAAGLPTDAFVFEGFLPTRGKRRLEKLANLKGEQRVVIFYEAPGRLQAALADMREVLGDRHVVVARELTKIHEEFVRGRVSFVAEHFAAVDVKGEVVILVAPAPAP” as the sequence, how does the “soluble on expression in E. coli” value read?
**A.** soluble

**Q.** For “SAGINYVQNYNGNLGDFTYDESAGTFSMYWEDGVSSDFVVGLGWTTGSSNAITYSAEYSASGSASYLAVYGWVNYPQAEYYIVEDYGDYNPCSSATSLGTVYSDGSTYQVCTDTRTNEPSITGTSTFTQYFSVRESTRTSGTVTVANHFNFWAHHGFGNSDFNYQVVAVEAWSGAGSASVTISS”, which “soluble on expression in E. coli” value is on record?
**A.** soluble

**Q.** For “SAIITTTTVRFTDGTSPTFFSSASTKAYNLHFLYSNSTQRLTNPKFGIGGKLKVTVNPYSYTEEVRPEERKSLTDFLTEAGDFVNSDGGDGGPPRWFSPLECGARAPESPLLLYLPGIDGTGLGLIRQHKRLGEIFDIWCLHFPVKDRTPARDIGKLIEKTVRSEHYRFPNRPIYIVGESIGASLALDVAASNPDIDLVLILANPVTRFTNLMLQPVLALLEILPDGVPGLITENFGFYQEMFETMLNENDAAQMGRGLLGDFFATSSNLPTLIRIFPKDTLLWKLQLLKSASASANSQMDTVNAQTLILLSGRDQWLMNKEDIERLRGALPRCEVRELENNGQFLFLEDGVDLVSIIKRAYYYRRGKSLDYISDYILPTPFEFKEYEESQRLLTAVTSPVFLSTLKNGAVVRSLAGIPSEGPVLYVGNHMLLGMELHAIALHFLKERNILLRGLAHPLMFTKKTGSKLPDMQLYDLFRIIGAVPVSGMNFYKLLRSKAHVALYPGGVREALHRKGEEYKLFWPEHSEFVRIASKFGAKIIPFGVVGEDDLCEMVLDYDDQMKIPFLKNLIEEITQDSVNLRNDEEGELGKQDLHLPGIVPKIPGRFYAYFGKPIDTEGREKELNNKEKAHEVYLQVKSEVERCMNYLKIKRETDPYRNILPRSLYYLTHGFSSQIPTFDLRNH”, which “soluble on expression in E. coli” value is on record?
**A.** not soluble

**Q.** For “SALTAALSVCPLPSSSFFFAGFLPHKKGRKSRLEFLASIDSTIVLYESPHRIGRLMEEVKEHFPDAQVFAAREITKMHEEYVTGTPDELANHFTGQKQRGEFVVVVHPPDKH”, which “soluble on expression in E. coli” value is on record?
**A.** not soluble

**Q.** Which “soluble on expression in E. coli” value does the source give for “SAQESLESQEQRARAALRERYLRSLLAMVGHQVSFTLHEGVRVAAHFGATDLDVANFYVSQLQTPIGVQAEALLRCSDIISYTFKP” here?
**A.** soluble

**Q.** For “SARKKIREYDSKRLLKEHLKRLANIDLQIRSAQVTESTDFTELTNQESWLSSTKLVVKPDMLFGKRGKSGLVALKLDLAEVADFVKARLGTEVEMEGCKAPITTFIVEPFVPHDQEYYLSIVSDRLGCTISFSECGGIEIEENWDKVKTIFLPAEKSMTLEVCAPLIATLPLEVRAKIGNFIMGAFAVFQDLDFSFMEMNPFTLVDGEPFPLDMRGELDDTAAFKNFNKWGDIEFPLPFGRVLSSTENFIHGLDEKTSASLKFTVLNPKGRIWTMVAGGGASVIYADTVGDLGYASELGNYAEYSGAPNEEEVLQYARVVIDCATTDPDGRKRALLIGGGIANFTDVAATFNGIIRALREKETRLKASRMHIYVRRGGPNYQTGLARMRALGEELGVPLEVYGPEATMTGICKRAIDCIMLPDA”, which “soluble on expression in E. coli” value is on record?
**A.** not soluble

**Q.** Which “soluble on expression in E. coli” value does the source give for “SASEDAALDATGHKKGEPAFGVTIPKGTTYRDSDGKEVPHPCVDRKIGYQGHFDALYGTYNYSVKEPATDLPKLELMAVDGQQVVPQESLCFRLPPDAGEDGEELSRIRIPDDEEFSFLGKPGDIVWYAPQNIPFANGHRPIWAGIGAFDPHHEPKGKDSIPEHLDKNMYFELKDFSGPGDVNVFFKNNSRKEVERIFSSNDEELKTIEYEMGSHGHFNWTFSKPGIYELTWEAYVKNGAFKVKTEPVRQIWLVGSDEEVGLPEGTTTNLNKITKPLDKDATNEPPTDPSEKKKPPRPEKGHSETSSPSALDDSIERAWKLTGTPKTIINDGHMDLALTRPDKEFVTVINREGKKYSSGDVTLAVPDSGGDQGGPLVKTDSWKDRIEAQISGSLPDQAWVLPESQDHKLPWVGFSNEDLPSDALLPDSKMTVSLNKVELPHDGRMISWHNGISGIDLLTDTDDLSKNLEYGLHAHDHQSMLFTKEGAYGLEYSFDITTASGKQESYPLHISYLVGDATIARAKEILAGEKLGGSLKKKPQEKETKKPASVQNKSGKHNKDTVGSESARKRQQLAATSGSDTNGIYSFHDGDVQDEAVTTAAEWQELDT” here?
**A.** not soluble

**Q.** With “SASKIKGRPPKQPKVTPALPSNDSQQLHENNPGNNLALETCGESSSSHGTGGPKPGPSKKTLNERKRKYGVSVNKTVQNIEWNVDHFLKVQHERRQELYKDYSHQFLTLVMMWNIDVDQIKKQAGKLSDILDEQQKLFQQFQSIHMQKIEEFKELCDRHLKNLQAIKCCRRKAIIEEARKLMDYLEKRVTEETVHVNKQEAKDGVQSSLLSLLIS” as the sequence, how does the “soluble on expression in E. coli” value read?
**A.** soluble

**Q.** Which “soluble on expression in E. coli” value does the source give for “SASRGYLHHLLTAEGAWEEFVSKAKLPRDRAVALHKALRDLTALLAIAERGRSRKGWKGKEKFVKAFPCLKADLEEHISQLYALADHAEELHRGCTVSNMVADSFSVASDILNLFGLFLAPESAEGSLVLSAAGLGLGVAATVTNVATSIMKETSRVLDGVEAGHHGSTAMDILEEAGTSVARIASEIPQATRDITRDLEALEQHMNALSLVRANPRLEEDARALINAGSIPAQRAKQVRASLKGTPLAMSKEDRIRSATTTGVTLLRDVGSLVNESKQLYEGSASESAAALRKLAQELEEKLGELMKFYETI” here?
**A.** not soluble

**Q.** For “SASSEVARHLLFQSHMATKTTCMSSQGSDDEQIKRENIRSLTMSGHVGFESLPDQLVNRSIQQGFCFNILCVGETGIGKSTLIDTLFNTNFEDYESSHFCPNVKLKAQTYELQESNVQLKLTIVNTVGFGDQINKEESYQPIVDYIDAQFEAYLQEELKIKRSLFTYHDSRIHVCLYFISPTGHSLKTLDLLTMKNLDSKVNIIPVIAKADTVSKTELQKFKIKLMSELVSNGVQIYQFPTDDDTIAKVNAAMNGQLPFAVVGSMDEVKVGNKMVKARQYPWGVVQVENENHCDFVKLREMLICTNMEDLREQTHTRHYELYRRCKLEEMGFTDVGPENKPVSVQETYEAKRHEFHGERQRKEEEMKQMFVQRVKEKEAILKEAERELQAKFEHLKRLHQEERMKLEEKRRLLEEEIIAFSKKKATSEIFHSQSFLATGSNLRKDKDRKNSNFL”, which “soluble on expression in E. coli” value is on record?
**A.** not soluble

**Q.** For “SASVRIREAKEGDCGDILRLIRELAEFEKLSDQVKISEEALRADGFGDNPFYHCLVAEILPAPGKLLGPCVVGYGIYYFIYSTWKGRTIYLEDIYVMPEYRGQGIGSKIIKKVAEVALDKGCSQFRLAVLDWNQRAMDLYKALGAQDLTEAEGWHFFCFQGEATRKLAGK”, which “soluble on expression in E. coli” value is on record?
**A.** soluble

**Q.** Which “soluble on expression in E. coli” value does the source give for “SCEGPSRISGPIPPDPTLCPDNYRRPTSAQGRLEGNALKLDLLTSDRALDTTAPRGPCIGPGAGEILERGQRGVGDVLLQLEGISLGPGASLKRKDPKDHEKENLRRIREIQKRFREQERSREQGQPRPLKALWRSPKYDKVESRVKAQLQEPGPASGTESAHFLRAHSRCGPGLPPPHVSSPQPTPPGPEAKEPGLGVDFIRHNARAAKRAPRRHSCSLQVLAQVLEQQRQAQEHYNATQKGHVPHYLLERRDLWRREAEARKQSQPDPAMPPGHTRMPENQRLETLTKLLQSQSQLLRELVLLPAGADSLRAQSHRAELDRKLVQVEEAIKIFSRPKVFVKMDD” here?
**A.** soluble

**Q.** For “SDEFVNLKETELRLGLPGTDNVCEAKERVSCCNNNNKRVLSTDTEKEIESSSRKTETSPPRKAQIVGWPPVRSYRKNNIQSKKNESEHEGQGIYVKVSMDGAPYLRKIDLSCYKGYSELLKALEVMFKFSVGEYFERDGYKGSDFVPTYEDKDGDWMLIGDVPWEMFICTCKRLRIMKGSEAKGLGCGV”, which “soluble on expression in E. coli” value is on record?
**A.** soluble

**Q.** With “SDMRQHEEYIADMALDPAKKLLLTASGDGCLGVFNIKRRRFELLSEPQSGDLTSVALMKYGKKVACGSSEGTIYLFNWNGFGATSDRFALRAESIDCIVPVTENLLCTSSTDGIIRAVNILPNRVVGTVGQHAGEPVEALALSHCGHFLASSGHDQRLKFWDMTQLRTVVVDDYRRRKKKGGPLRALSSKAWSTDDFFAGLREDEEDAKAPEEVVRESDDDDDDSD” as the sequence, how does the “soluble on expression in E. coli” value read?
**A.** soluble

**Q.** With “SDRFTSQSSFVVRSPKSQSSLNGLGAILQGTGFARAQDDIYTVGEYMRSRSSLDELRKILPVREFYETKGDAFSRFNGFGFRGEEEAFYQYYKNQ” as the sequence, how does the “soluble on expression in E. coli” value read?
**A.** not soluble
